For experiment [1], the target named is T1, full-length His-tagged IL-17F protein (ab167911, Abcam) (human, UniProt Q96PD4 31-163).
T1 construct: Bought protein, called 'full-length'; also called human IL-17F protein; recombinant human IL-17F protein; not shown: His tag of the bought protein
T1 chain: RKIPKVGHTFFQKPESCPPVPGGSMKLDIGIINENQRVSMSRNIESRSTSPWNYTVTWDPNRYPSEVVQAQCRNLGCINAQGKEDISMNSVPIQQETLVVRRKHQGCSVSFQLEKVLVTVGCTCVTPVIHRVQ
Nature of the experiment: point ELISA: ligand on NeutrAvidin plate, 100 nM His-tagged IL-17F against His-tagged IL-17A as reference. In general terms: An ELISA detects its analyte on a solid surface through an enzyme-linked reagent.

Experiment [2] has as its target T1, full-length His-tagged IL-17F protein …. Nature of the experiment: method not named there (same number as the ELISA EC50).
Experiment [3] has the same target. The experiment in a line: sandwich ELISA: biotinylated ligand on NeutrAvidin plate, His-tagged IL-17F titrated, anti-His-AP detection.
Experiment [4] deals with T2, Plasmodium falciparum Histidine Rich Protein-2 (Pf.HRP-2) (Plasmodium falciparum).
T2 chain: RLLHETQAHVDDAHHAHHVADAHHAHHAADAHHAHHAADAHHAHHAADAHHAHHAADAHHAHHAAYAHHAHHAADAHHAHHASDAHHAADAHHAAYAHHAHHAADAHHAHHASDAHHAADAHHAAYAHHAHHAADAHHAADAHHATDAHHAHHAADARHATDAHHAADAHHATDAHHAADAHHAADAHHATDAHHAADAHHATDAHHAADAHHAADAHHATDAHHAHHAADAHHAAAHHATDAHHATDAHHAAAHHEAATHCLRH
Nature of the experiment: method and form of the target not stated.

Experiment [5] deals with T3, His6-PEG3-SQFEKFPSPPVPGGS (not fully specified (N-terminus); printed as His6-PEG3-SQFEKFPSPPVPGGS).
T3 construct: Chemically synthesized
T3 peptide: SQFEKFPSPPVPGGS
The experiment in a line: point ELISA: ligand on NeutrAvidin plate, His-tagged epitope peptide, anti-His-AP detection.
Procedure: (§1) Assay to determine orientation of macrocycle binding to IL-17F Epitope1. […] The plate was aspirated and then washed with TBS (5×) and Wash Buffer (0.05% (v/v) Tween-20 in PBS, 1×). Chemically synthesized His-tagged IL-17F epitopes were prepared at 2 μM in Wash Buffer and incubated in the designated microwells for 90 min at room temperature. Wash Buffer without epitope was added as a control. Microwells were aspirated and subsequently washed with Wash Buffer (10×). To detect the bound IL-17F epitopes, Alkaline Phosphatase (AP)-conjugated Anti-6X His tag® antibody [HIS-1] (ab49746, Abcam) was prepared at 1:10,000 dilution and added to the microwells for 1 h at room temperature. […] AttoPhos® AP Fluorescent Substrate System (S1000, Promega) was employed to develop the microwells. […] Data are shown after subtraction of the no-epitope background.

Experiment [6] concerns the target T1, full-length His-tagged IL-17F protein …. Nature of the experiment: point ELISA: ligand on NeutrAvidin plate, His-tagged IL-17F against His-tagged IL-17A as reference.
Procedure: Point ELISA (IL-17F vs. IL-17A selectivity assay). […] The plate was aspirated and then washed with TBS (5×) and Wash Buffer (0.05% (v/v) Tween-20 in PBS, 1×). Full-length His-tagged IL-17F (ab167911, Abcam) and IL-17A (ab166882, Abcam) proteins were prepared at 100 and 10 nM in Wash Buffer and incubated in the designated microwells for 90 min at room temperature. Microwells were aspirated and subsequently washed with Wash Buffer (10×). To detect the bound IL-17F and IL-17A proteins, Alkaline Phosphatase (AP)-conjugated Anti-6X His tag® antibody [HIS-1] (ab49746, Abcam) was prepared at 1:10,000 dilution and added to the microwells for 1 h at room temperature. […] AttoPhos® AP Fluorescent Substrate System (S1000, Promega) was employed to develop the microwells.
For these assays, the full-length His-tagged IL-17F and IL-17A proteins were captured using the macrocyclic peptide ligands immobilized on a NeutrAvidin-coated plate.
Experiment [7] has as its target T4, His6-PEG3-FFQKPESSPPVPGGS (human, not fully specified (N-terminus); printed as His6-PEG3-FFQKPESSPPVPGGS).
T4 construct: Chemically synthesized
T4 peptide: FFQKPESSPPVPGGS
The experiment in a line: point ELISA with His-tagged epitope peptides scrambled at the N- or C-terminus.

Experiment [8] deals with T1, full-length His-tagged IL-17F protein …. The experiment in a line: surface-immobilized macrocycle contacted with IL-17F, IL-17A or no protein.
Experiment [9] has as its target T5, His6-PEG3-FFQKPESSPVSPGPG (not fully specified (N-terminus); printed as His6-PEG3-FFQKPESSPVSPGPG).
T5 construct: Chemically synthesized
T5 peptide: FFQKPESSPVSPGPG
Nature of the experiment: point ELISA: ligand on NeutrAvidin plate, 2 µM His-tagged epitope peptide, anti-His-AP detection.
Procedure: as §1

Experiment [10] deals with T4, His6-PEG3-FFQKPESSPPVPGGS
Described as above.
Procedure: as §1

For experiment [11], the target named is T2, Plasmodium falciparum Histidine Rich …. Nature of the experiment: comparison of EC50 values.
The target in experiment [12] is T1, full-length His-tagged IL-17F protein …. The experiment in a line: fluorescence polarization in solution: IL-17F titrated against the 5-FITC-tagged macrocycle.
Experiment [13] has the same target. The experiment in a line: fluorescence polarization in solution. (In general: Fluorescence polarisation rises when a labelled molecule tumbles more slowly, as on binding a larger partner.)
For experiment [14] the target is unchanged. Nature of the experiment: comparison of affinities for His-tagged IL-17F; reference the other biligands (PEG1, PEG2, PEG4, PEG5).
The target is the same in experiment [15]. The experiment in a line: point ELISA against recombinant human IL-17F and IL-17A.
The target is the same in experiment [16]. Nature of the experiment: binding to His-tagged IL-17F human recombinant protein; method not named there (ELISA implied).
The target is the same in experiment [17]. The experiment in a line: comparison of affinities for His-tagged IL-17F.

Bridge positions count the residues as written; N and C are the ends. Square brackets hold non-standard residues; d marks the D form. Primed or numbered codes have the meaning given here. Ends that are not written are not given here. * marks the point of attachment. Biotin = O=C1N[C@H]2[C@H](CS[C@H]2CCCCC(=O)*)N1; Lys(N3) = [N-]=[N+]=NCCCC[C@H](N)C(=O)O; PEG3′ = PEGylated amino acid linker; Biotin′ = not defined here; Pra = C#CC[C@H](N)C(=O)O Where only a bound is given, the exact number is not on record here.

B1: Biotin-PEG3-Cy(RSYNK) (SEQ ID NO:28) (peptide)
peptide: RSYNK
modifications: not fully specified; cyclised by a triazole between flanking N-terminal Pra (L-propargylglycine) and C-terminal Az4 (L-azidolysine); Biotin-PEG3 label
notes: also called LF2; PEG3-biotin-modified Cy(RSYNK)
As to B1, the “selectivity for IL-17F (against IL-17A)” value in experiment [1] turned out to be 4 ratio. For the same molecule, binding in [2] was characterised by a dissociation constant (Kd) of 15 nM. Besides, the EC50 in experiment [3] is 15 nM.

YKYYR (also: cyclic, mode of cyclisation not given here, also called cyclic YKYYR) [Cy(YKYYR) (SEQ ID NO:29)]: a half-maximal effect in [4] (EC50) was put at 220 nM.

B2: Cy(RRATS)(SEQ ID NO:9)-PEG3-biotin (peptide)
peptide: [Pra]RRATS[Lys(N3)]-{PEG3′-Biotin′}
modifications: triazole N-C
notes: also called LF1; PEG3-biotin-modified Cy(RRATS)
Take B2: the values for the binding result in experiment [5], in [7] and in experiment [9] were “no binding (tested: 2 µM epitope)”, “binds” and “binds”, respectively. Besides, the entries for the “selectivity for IL-17F (against IL-17A)” value in [6] and in [8] were 2 ratio and 10 ratio, respectively. Moreover, the EC50 in experiment [3] is 66 nM.

B3: Cy(RRAQS)(SEQ ID NO:10)-PEG3-biotin (peptide)
peptide: [Pra]RRAQS[Lys(N3)]-{PEG3′-Biotin′}
modifications: triazole N-C
notes: also called PEG3-biotin-modified Cy(RRAQS)
In the case of B3, the binding result in experiment [5] is on record as “no binding (tested: 2 µM epitope)”; in experiment [9] it was “binds”; in [10] it was “binds”. The “selectivity for IL-17F (against IL-17A)” value in experiment [6] came to 2 ratio. This molecule came in with an EC50 in [3] of 52 nM.

B4: linked biligand of two Cy(YKYYR) (SEQ ID NO:29) PCCs with about a 1.5 nm long linker (peptide)
peptide: YKYYR
modifications: also: cyclic peptide (Cy), closure not given here, dimer: two macrocycles joined by a linker of about 1.5 nm
notes: also called the resultant linked biligand
In [4], B4 came in with a half-maximal effective concentration (EC50) of 20.8 nM.

In [4], GWNVDL (also: cyclic peptide, closure not given here, also called cy(GWNVDL)) [cyclic PCC with variable sequence GWNVDL (SEQ ID NO:30)] returned an EC50 of 50 nM.

B5: cy(YKYYR)(SEQ ID NO:29)-linker-cy(GWNVDL) (SEQ ID NO:30) (peptide)
peptide 1: YKYYR
peptide 2: GWNVDL
modifications: not fully specified
notes: One covalent molecule; also called the resultant biligand
Take B5: the response in [4] was half-maximal at 0.54 nM (EC50). For the same molecule, the “fold improvement over the better of the two ligand components” value in experiment [11] stood at 100 fold.

B6: Biotin-PEG3-Cy(KKGWP) (SEQ ID NO:23) (peptide)
peptide: KKGWP
modifications: not fully specified; cyclised by a triazole between flanking N-terminal Pra (L-propargylglycine) and C-terminal Az4 (L-azidolysine); N-terminal Biotin-PEG3 label
notes: also called PEG3-biotin-modified Cy(KKGWP)
Regarding B6, the “selectivity for IL-17F (against IL-17A)” value in experiment [1] was found to be 4 ratio. In addition, in experiment [3], the midpoint of the response, the EC50, lay at 24 nM.

B7: fluorescein 5-isothiocyanate (5-FITC)-tagged LF2 (peptide)
peptide: [Pra]RSYNK[Lys(N3)]
modifications: triazole N-C; numbers in words are those of the source; also: 5-FITC tag, position not given here
notes: Form of LF2 used in fluorescence polarization; also called LF2 (5-FITC-tagged)
In [12], B7 displayed a Kd of 28 nM.

B8: Biotin-PEG3-Cy(RSYNK)(SEQ ID NO:28)-PEG3-Cy(RRATS) (SEQ ID NO:9) (peptide)
peptide 1: {Biotin-PEG3′}-[Pra]RSYNK
peptide 2: [Pra]RRATS[Lys(N3)]
modifications: not fully specified (C-terminus); also: triazole to a chain's N/C-terminus, triazole to a chain's N/C-terminus
notes: One covalent molecule: the two macrocycles are joined by a single PEGylated amino acid (PEG3); also called Bi-LF; Cy(RSYNK)-PEG3-Cy(RRATS)
Regarding B8, the figures for the dissociation constant (Kd) in experiment [13] and in [16] were 0.252 nM and 0.246 nM, respectively. Besides, in experiment [14], the “times stronger than the other biligands” value was ≥ 16 fold. The “selectivity for IL-17F (against IL-17A)” value in experiment [15] amounted to 4 ratio. In addition, the “fold improvement in affinity relative to the individual PCC macrocyclic ligands” value in experiment [17] was > 100 fold.

B9: fluorescein 5-isothiocyanate (5-FITC)-tagged LF1 (peptide)
peptide: [Pra]RRATS[Lys(N3)]
modifications: triazole N-C; numbers in words are those of the source; also: 5-FITC tag, position not given here
notes: Form of LF1 used in fluorescence polarization; also called LF1 (5-FITC-tagged)
For B9, the affinity in experiment [12], expressed as Kd, was 50 nM.

The term Kd denotes the equilibrium constant for the complex coming apart. As a reminder, the EC50 is the midpoint of the concentration-response curve.

For the origin of these results see patent publication US20180364253A1 (published 2018).
